# Experimental data from IntAct's records for PubMed 15208391.
# B1: Cullin-1 (Arabidopsis thaliana (Mouse-ear cress)), Q94AH6 (parent)
# chain: MERKTIDLEQGWDYMQTGITKLKRILEGLNEPAFDSEQYMMLYTTIYNMCTQKPPHDYSQQLYDKYREAFEEYINSTVLPALREKHDEFMLRELFKRWSNHKVMVRWLSRFFYYLDRYFIARRSLPPLNEVGLTCFRDLVYNELHSKVKQAVIALVDKEREGEQIDRALLKNVLDIYVEIGMGQMERYEEDFESFMLQDTSSYYSRKASSWIQEDSCPDYMLKSEECLKKERERVAHYLHSSSEPKLVEKVQHELLVVFASQLLEKEHSGCRALLRDDKVDDLSRMYRLYHKILRGLEPVANIFKQHVTAEGNALVQQAEDTATNQVANTASVQEQVLIRKVIELHDKYMVYVTECFQNHTLFHKALKEAFEIFCNKTVAGSSSAELLATFCDNILKKGGSEKLSDEAIEDTLEKVVKLLAYISDKDLFAEFYRKKLARRLLFDRSANDDHERSILTKLKQQCGGQFTSKMEGMVTDLTLARENQNSFEDYLGSNPAANPGIDLTVTVLTTGFWPSYKSFDINLPSEMIKCVEVFKGFYETKTKHRKLTWIYSLGTCHINGKFDQKAIELIVSTYQAAVLLLFNTTDKLSYTEILAQLNLSHEDLVRLLHSLSCAKYKILLKEPNTKTVSQNDAFEFNSKFTDRMRRIKIPLPPVDERKKVVEDVDKDRRYAIDAAIVRIMKSRKVLGHQQLVSECVEQLSRMFKPDIKAIKKRMEDLITRDYLERDKENPNMFRYLA
# partner: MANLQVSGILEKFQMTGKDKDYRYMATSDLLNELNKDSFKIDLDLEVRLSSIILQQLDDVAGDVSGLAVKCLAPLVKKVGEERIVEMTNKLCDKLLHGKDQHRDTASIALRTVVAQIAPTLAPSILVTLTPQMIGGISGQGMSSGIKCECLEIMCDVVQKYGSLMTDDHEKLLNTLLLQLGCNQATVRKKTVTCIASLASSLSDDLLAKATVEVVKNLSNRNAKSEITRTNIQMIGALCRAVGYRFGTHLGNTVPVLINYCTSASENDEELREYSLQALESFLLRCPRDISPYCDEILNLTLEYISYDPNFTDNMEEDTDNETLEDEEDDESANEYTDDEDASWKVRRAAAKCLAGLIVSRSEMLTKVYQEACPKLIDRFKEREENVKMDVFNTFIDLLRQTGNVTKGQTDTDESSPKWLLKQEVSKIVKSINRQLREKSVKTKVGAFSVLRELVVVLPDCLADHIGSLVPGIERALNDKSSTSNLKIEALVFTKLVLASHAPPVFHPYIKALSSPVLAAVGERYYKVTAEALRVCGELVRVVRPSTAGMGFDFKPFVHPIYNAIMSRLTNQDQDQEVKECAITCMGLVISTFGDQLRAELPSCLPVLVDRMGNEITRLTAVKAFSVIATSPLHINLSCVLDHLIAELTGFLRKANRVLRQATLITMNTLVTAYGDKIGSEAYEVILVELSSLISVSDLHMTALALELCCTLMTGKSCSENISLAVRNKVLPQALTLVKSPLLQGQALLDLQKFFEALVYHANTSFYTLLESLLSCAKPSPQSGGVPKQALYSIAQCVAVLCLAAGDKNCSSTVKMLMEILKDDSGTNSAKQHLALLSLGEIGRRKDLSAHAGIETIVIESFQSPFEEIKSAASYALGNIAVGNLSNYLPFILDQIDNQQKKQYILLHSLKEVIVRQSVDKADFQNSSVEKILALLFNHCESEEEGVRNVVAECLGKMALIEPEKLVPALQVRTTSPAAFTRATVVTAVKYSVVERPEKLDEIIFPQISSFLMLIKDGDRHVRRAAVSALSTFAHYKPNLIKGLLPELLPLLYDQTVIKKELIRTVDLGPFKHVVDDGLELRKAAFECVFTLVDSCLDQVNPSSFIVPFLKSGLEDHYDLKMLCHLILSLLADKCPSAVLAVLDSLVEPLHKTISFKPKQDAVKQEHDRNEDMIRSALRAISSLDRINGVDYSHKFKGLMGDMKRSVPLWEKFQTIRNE
# Variants of: B1
# Conditions: with cand1_arath CAND1, Q8L5Y6
row,effect of a mutation on the interaction,Variant
1,increasing interaction strength,K682R
